No end group written: not given here. *: point of attachment. methylmercury = [CH3][Hg]*
Assays:
[1] = Particle size and polydispersity by dynamic light scattering (Litesizer 500); type: physicochemical; details: for Hydrodynamic Diameter / Polydispersity: colloids produced by the amphipathic sequence in soy oil
Description: (§1) Encapsulation studies-Winterized Soybean oil (Archer Daniel Midlands, Chicago, IL) 50 μL was added to 2 mg of dry peptide and vortexed for 2 min. Deionized distilled-reverse osmosis (DDI-RO) water was added to a final volume of 1 mL. This mixture was sonicated (bath sonicator) for 15 min at 37° C. The generated CAPC are maintained at RT for at least 1 h prior to confocal microscopy. For the solvent/oil encapsulation study reagent grade-Benzene (Sigma-Aldrich, St. Louis, MO), Cyclohexane (Acros Organics, Geel, Belgium), n-Decane (grade 99+%, Sigma-Aldrich, St. Louis), Migloyl® 812N; capric triglyceride (Pharma Grade, IOI Oleo GmbH, Witten, Germany), and Mineral oil paraffin (USP, Thermo-Fisher Scientific, Waltham, MA) and Winterized Soy oil (Archer Daniel Midlands, Chicago, IL) were used. […] prepared using 50 μL of the solvent/oil along with 480 μL of DDI-RO water were sonicated for 15 min. CAPC, 2 mg, was subsequently added and sonicated for 10 min. These samples were measured 24 h thereafter for their size, Zeta potential and their circular dichroism (CD) spectra recorded. Particle size/Zeta potential-The samples were analyzed using a LitesizerTM 500 Particle Size Analyzer (Anton Paar GmbH, Graz, Austria) using an Omega Cuvette at 25° C. The size distribution of the particles was analyzed with the proprietary KalliopeTM v.2.16 software (Anton Paar GmbH, Graz, Austria) using the intensity-weighing model. For the Zeta potential analysis, the suspension used above was diluted to 5-fold in DDI-RO prior to analysis.

[2] = Zeta potential analysis (Litesizer 500); type: physicochemical
Description: as §1

[3] = colloids produced by the amphipathic sequence in soy oil

## 5(6)-Ac-FLIVI-KKKKK- C-CF (Ac-FLIVIKKKKKC; also: 5(6)-carboxyfluorescein label (C-CF), attachment not given here)
[1]
  Hydrodynamic Diameter: 766 ± 225.0 nm
  Polydispersity: 21 ± 4.8%
[2]; [3]
  Zeta Potential: 25 ± 2.7 mV

## Ac-FAAAA-KKKKK-CONH2 (Ac-FAAAAKKKKK-NH2) [oligo-alanine peptide]
[1]
  Hydrodynamic Diameter: 681 nm
  Polydispersity: 500%
[2]; [3]
  Zeta Potential: 10.2 mV

## Ac-FLIVI-KKKKK-C-Me-Hg (Ac-FLIVIKKKKKC(methylmercury))
[1]
  Hydrodynamic Diameter: 578 ± 96.0 nm
  Polydispersity: 25 ± 5.8%
[2]; [3]
  Zeta Potential: 33 ± 4.0 mV

## Ac-FLIVI-KKKKK-CO-NH2 (Ac-FLIVIKKKKK-NH2) [Ac-FLIVI-KKKKK-CONH2]
[1]
  Hydrodynamic Diameter: 560 nm
  Polydispersity: 20%
[1]; peptide complexed with soy oil droplets, DLS intensity peak
  average (mean) diameter: 465 nm
[2]; [3]
  Zeta Potential: 38 mV
[2]; peptide complexed with soy oil droplets
  Zeta Potential: 44.8 mV

## Ac-FLIVIGSII-KKKKK-CONH2 (Ac-FLIVIGSIIKKKKK-NH2) [Ac-FLIVIGSII-KKKKKCONH2]
[1]
  Hydrodynamic Diameter: 300 nm
  Polydispersity: 23%
[2]; [3]
  Zeta Potential: 21 mV

## Ac-FLLLL-KKKKK-CONH2 (Ac-FLLLLKKKKK-NH2)
[1]
  Hydrodynamic Diameter: 666 nm
  Polydispersity: 200%
[2]; [3]
  Zeta Potential: −0.6 mV

## Ac-IVFLI-KKKKK-CONH2 (Ac-IVFLIKKKKK-NH2)
[1]
  Hydrodynamic Diameter: 594 nm
  Polydispersity: 25%
[2]; [3]
  Zeta Potential: 25 mV

From US20250339382A1, “CORRALLING AMPHIPATHIC PEPTIDE COLLOIDS” (KANSAS STATE UNIVERSITY RESEARCH FOUNDATION, priority 2022, published 2025)
